Biological target: purified HSA (Abcam, ab201876) (UniProt P02768)
UniProt P02768, sequence (P02768 whole entry, looked up): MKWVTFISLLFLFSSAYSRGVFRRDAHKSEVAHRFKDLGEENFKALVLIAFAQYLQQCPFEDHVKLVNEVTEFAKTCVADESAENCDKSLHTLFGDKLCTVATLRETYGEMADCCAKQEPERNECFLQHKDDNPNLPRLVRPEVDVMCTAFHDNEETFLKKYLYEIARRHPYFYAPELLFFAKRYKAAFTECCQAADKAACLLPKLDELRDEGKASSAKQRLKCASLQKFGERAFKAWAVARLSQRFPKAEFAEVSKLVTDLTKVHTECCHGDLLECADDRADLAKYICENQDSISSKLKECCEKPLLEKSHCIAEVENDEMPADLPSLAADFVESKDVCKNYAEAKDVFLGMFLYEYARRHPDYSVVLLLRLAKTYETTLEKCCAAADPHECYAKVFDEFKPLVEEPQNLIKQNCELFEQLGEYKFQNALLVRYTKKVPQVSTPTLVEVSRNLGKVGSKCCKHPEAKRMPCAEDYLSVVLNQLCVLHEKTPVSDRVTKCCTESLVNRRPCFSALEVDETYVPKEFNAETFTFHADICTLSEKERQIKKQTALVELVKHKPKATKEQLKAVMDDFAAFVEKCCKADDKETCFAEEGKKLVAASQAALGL

## YscB protein of Talaromyces cellulolyticus strain S6-25
  degradation of purified HSA mixed with culture supernatant (30 C, 3 days), SDS-PAGE and Western blotting using an anti-HSA antibody: in the case of the strain deficient in yscB, the bands corresponding to degradation products were eliminated
